Source: patent publication US20260070986A1 (AFFIMED, published 2026)

Legend:
[1] = biological target: T1, recombinant cynomolgus neonatal Fc receptor (FcRn), biotinylated (cynomolgus, UniProt Q8SPV9 24-297, limits assumed, site-directed biotinylation at AviTag); assay: SPR (Biacore), 37 °C, pH 6.0, biotin-captured cynomolgus FcRn as ligand, steady-state affinity fit
T1 construct: also called cynomolgus FcRn
Protocol: Affinity parameters were evaluated for interaction with human FcRn, cynomolgus FcRn or murine FcRn using a Steady State Binding model (D-F).

[2] = biological target: T2, CD123 on CD123+ cells (EOL-1 and other CD123+ tumour or patient cells) (human, UniProt P26951 19-378); assay: flow cytometry on CD123+ EOL-1 cells, anti-human IgG-APC detection
T2 construct: whole, on cells; also called interleukin-3 receptor
T2 sequence (P26951 19-378): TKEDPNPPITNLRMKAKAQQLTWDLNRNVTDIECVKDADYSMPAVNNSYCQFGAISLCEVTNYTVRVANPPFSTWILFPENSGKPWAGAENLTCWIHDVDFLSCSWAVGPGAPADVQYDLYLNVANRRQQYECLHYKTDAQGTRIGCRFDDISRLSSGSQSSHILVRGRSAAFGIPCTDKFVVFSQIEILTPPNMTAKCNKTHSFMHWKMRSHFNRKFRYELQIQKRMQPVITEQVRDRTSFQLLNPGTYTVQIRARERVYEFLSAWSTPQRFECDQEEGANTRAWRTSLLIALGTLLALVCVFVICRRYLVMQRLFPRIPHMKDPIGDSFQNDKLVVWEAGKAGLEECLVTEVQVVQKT
Protocol: To analyze binding of CD123xCD16A antibody constructs to CD123+ EOL-1 cells, CD123− A-431 cells and CD123− Karpas-299 cells by flow cytometry, 1×10⁵ cells were resuspended in 100 μL FACS buffer in round-bottom 96-well microtiter plates. After washing in FACS buffer, cells were incubated in 100 μL FACS buffer without antibodies or with titrated antibodies starting at a concentration of 100 μg/mL followed by eight 10-fold serial dilutions for 45 min on ice in the dark. After washing twice, cells were incubated with APC-conjugated goat anti-human IgG (H+L)-APC (1/200 dilution) for 30 min on ice in the dark. After washing, binding was measured by flow cytometry and mean fluorescence intensities (MFI) of cell samples were calculated and corrected for background staining using control cells stained with secondary antibodies only.

[3] = biological target: T3, human CD16A (158F) on transfected CHO cells (cAg_34) (human, UniProt P08637 17-254); assay: flow cytometry on huCD16A-transfected CHO cells (cAg_34), one-site fit of MFI, mean of 3 experiments
T3 construct: Exact cell-anchored construct not described; also called huCD16A
T3 sequence (P08637 17-254 limits assumed): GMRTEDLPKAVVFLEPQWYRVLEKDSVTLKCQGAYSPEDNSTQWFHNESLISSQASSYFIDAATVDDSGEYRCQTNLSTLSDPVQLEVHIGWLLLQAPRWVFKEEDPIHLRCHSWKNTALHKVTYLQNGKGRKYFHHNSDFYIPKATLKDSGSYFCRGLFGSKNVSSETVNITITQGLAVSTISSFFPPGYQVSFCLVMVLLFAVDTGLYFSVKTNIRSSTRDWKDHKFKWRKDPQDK
Protocol: After washing in FACS buffer, cells were incubated in 50 μL FACS buffer without antibodies or with titrated antibodies starting at a concentration of 100 μg/mL followed by ten 5-fold serial dilutions for 30 min on ice in the dark. After washing twice, cells were incubated with APC-conjugated goat anti-human IgG (H+L)-APC (Dianova, cat. 109-136-088) for 30 min on ice in the dark. […] After washing, binding was measured by flow cytometry and mean fluorescence intensities (MFI) of cell samples were calculated and corrected for background staining using control cells stained with secondary antibodies only.
Equilibrium dissociation constants (KD) of antibody binding were calculated by plotting MFI values and fitting a non-linear regression model for one-site binding to hyperbolic dose-response curves using GraphPad Prism.

[4] = biological target: T4, recombinant human FcγRIIC (CD32C), biotinylated (human, UniProt P31995 43-223, limits assumed, site-directed biotinylation at AviTag); assay: SPR (Biacore), 37 °C, biotin-captured human CD32C as ligand, steady-state plot; left-hand column, no heading on the sheet
T4 construct: also called human CD32C
T4 sequence (looked up): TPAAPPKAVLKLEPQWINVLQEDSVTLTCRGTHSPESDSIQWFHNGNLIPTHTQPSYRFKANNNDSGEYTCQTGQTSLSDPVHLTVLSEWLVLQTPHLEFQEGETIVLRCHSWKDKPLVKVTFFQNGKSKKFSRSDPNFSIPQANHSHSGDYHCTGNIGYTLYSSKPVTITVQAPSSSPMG
Protocol: FIG. 21: SPR interaction analysis of antibody binding to CD32. […] Affinity parameters were evaluated for interaction with receptors using a Steady State Binding model.

T1 sequence (Q8SPV9 24-297 limits assumed, form in doubt): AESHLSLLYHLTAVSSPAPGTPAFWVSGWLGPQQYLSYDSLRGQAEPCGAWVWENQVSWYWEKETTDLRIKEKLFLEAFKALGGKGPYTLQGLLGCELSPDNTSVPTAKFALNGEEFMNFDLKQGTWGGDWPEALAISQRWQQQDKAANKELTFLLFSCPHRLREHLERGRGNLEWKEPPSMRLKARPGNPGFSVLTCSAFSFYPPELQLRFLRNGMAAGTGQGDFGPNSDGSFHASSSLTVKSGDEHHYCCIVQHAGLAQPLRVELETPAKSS

- Kd [1]: 238 nM
- EC50 (read off the curve) [2]: ~0.4 nM
- Kd [3]: 16.3 nM
- binding result [4]: no binding
B1: scFv-IgAb_268 (CD123-1xCD16a1) (bispecific antibody)
heavy: QVQLQQSGAEVKKPGASVKVSCKASGYTFTDYYMKWVKQSHGKSLEWMGDIIPSNGATFYNQKFKGKATLTVDRSTSTAYMELSSLRSEDTAVYYCARSHLLRASWFAYWGQGTLVTVSSASTKGPSVFPLAPSSKSTSGGTAALGCLVKDYFPEPVTVSWNSGALTSGVHTFPAVLQSSGLYSLSSVVTVPSSSLGTQTYICNVNHKPSNTKVDKKVEPKSCDKTHTCPPCPAPEFEGGPSVFLFPPKPKDTLMISRTPEVTCVVVAVSHEDPEVKFNWYVDGVEVHNAKTKPREEQYNSTYRVVSVLTVLHQDWLNGKEYKCKVSNKALPAPIEKTISKAKGQPREPQVYTLPPSREEMTKNQVSLTCLVKGFYPSDIAVEWESNGQPENNYKTTPPVLDSDGSFFLYSKLTVDKSRWQQGNVFSCSVMHEALHNHYTQKSLSLSPGGGGGSGGGGSGGGGSGGGGSGGGGSGGGGSSYELTQPLSVSVALGQTARITCGGNNIGSKSVHWYQQKPGQAPVLVIYQDKKRPSGIPERFSGSNSGNTATLTISRAQAGDEADYYCQVWDDYIVLFGCGTKLTVLGGSGGSGGSGGSGGSGGSGGSQVQLVQSGAEVKKPGASVKVSCKASGYTFTNYYMQWVRQAPGQCLEWMGIINPSGGVTSYAQKFQGRVTMTRDTSTSTVYMELSSLRSEDTAVYYCARGSAYYYDFADYWGQGTLVTVSS
light: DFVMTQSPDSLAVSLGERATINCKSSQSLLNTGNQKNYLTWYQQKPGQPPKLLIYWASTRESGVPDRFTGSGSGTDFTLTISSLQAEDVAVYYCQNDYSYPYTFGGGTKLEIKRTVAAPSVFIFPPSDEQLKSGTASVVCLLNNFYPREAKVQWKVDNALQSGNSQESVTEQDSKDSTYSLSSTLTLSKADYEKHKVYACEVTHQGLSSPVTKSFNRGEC
notes: also called AFM28; CD123xCD16A scFv-IgAb_268
